In IntAct's records for PubMed 23328395:

B1: Interferon-induced helicase C domain-containing protein 1 (Homo sapiens), Q9BYX4 (parent)
chain: MSNGYSTDENFRYLISCFRARVKMYIQVEPVLDYLTFLPAEVKEQIQRTVATSGNMQAVELLLSTLEKGVWHLGWTREFVEALRRTGSPLAARYMNPELTDLPSPSFENAHDEYLQLLNLLQPTLVDKLLVRDVLDKCMEEELLTIEDRNRIAAAENNGNESGVRELLKRIVQKENWFSAFLNVLRQTGNNELVQELTGSDCSESNAEIENLSQVDGPQVEEQLLSTTVQPNLEKEVWGMENNSSESSFADSSVVSESDTSLAEGSVSCLDESLGHNSNMGSDSGTMGSDSDEENVAARASPEPELQLRPYQMEVAQPALEGKNIIICLPTGSGKTRVAVYIAKDHLDKKKKASEPGKVIVLVNKVLLVEQLFRKEFQPFLKKWYRVIGLSGDTQLKISFPEVVKSCDIIISTAQILENSLLNLENGEDAGVQLSDFSLIIIDECHHTNKEAVYNNIMRHYLMQKLKNNRLKKENKPVIPLPQILGLTASPGVGGATKQAKAEEHILKLCANLDAFTIKTVKENLDQLKNQIQEPCKKFAIADATREDPFKEKLLEIMTRIQTYCQMSPMSDFGTQPYEQWAIQMEKKAAKEGNRKERVCAEHLRKYNEALQINDTIRMIDAYTHLETFYNEEKDKKFAVIEDDSDEGGDDEYCDGDEDEDDLKKPLKLDETDRFLMTLFFENNKMLKRLAENPEYENEKLTKLRNTIMEQYTRTEESARGIIFTKTRQSAYALSQWITENEKFAEVGVKAHHLIGAGHSSEFKPMTQNEQKEVISKFRTGKINLLIATTVAEEGLDIKECNIVIRYGLVTNEIAMVQARGRARADESTYVLVAHSGSGVIEHETVNDFREKMMYKAIHCVQNMKPEEYAHKILELQMQSIMEKKMKTKRNIAKHYKNNPSLITFLCKNCSVLACSGEDIHVIEKMHHVNMTPEFKELYIVRENKALQKKCADYQINGEIICKCGQAWGTMMVHKGLDLPCLKIRNFVVVFKNNSTKKQYKKWVELPITFPNLDYSECCLFSDED
partner: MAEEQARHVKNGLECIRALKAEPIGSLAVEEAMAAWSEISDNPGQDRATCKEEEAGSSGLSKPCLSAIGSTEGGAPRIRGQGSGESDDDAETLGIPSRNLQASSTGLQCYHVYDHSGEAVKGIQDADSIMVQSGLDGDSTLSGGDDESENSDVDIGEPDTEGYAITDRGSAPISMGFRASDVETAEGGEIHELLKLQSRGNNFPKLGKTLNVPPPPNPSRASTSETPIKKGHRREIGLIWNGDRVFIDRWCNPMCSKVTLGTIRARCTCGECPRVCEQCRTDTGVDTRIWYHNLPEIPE
B2: Non-structural protein V (Simian virus 5 (strain W3)), P11207 (parent)
chain: MDPTDLSFSPDEINKLIETGLNTVEYFTSQQVTGTSSLGKNTIPPGVTGLLTNAAEAKIQESTNHQKGSVGGGAKPKKPRPKIAIVPADDKTVPGKPIPNPLLGLDSTPSTQTVLDLSGKTLPSGSYKGVKLAKFGKENLMTRFIEEPRENPIATSSPIDFKRGRDTGGFHRREYSIGWVGDEVKVTEWCNPSCSPITAAARRFECTCHQCPVTCSECERDT
partner: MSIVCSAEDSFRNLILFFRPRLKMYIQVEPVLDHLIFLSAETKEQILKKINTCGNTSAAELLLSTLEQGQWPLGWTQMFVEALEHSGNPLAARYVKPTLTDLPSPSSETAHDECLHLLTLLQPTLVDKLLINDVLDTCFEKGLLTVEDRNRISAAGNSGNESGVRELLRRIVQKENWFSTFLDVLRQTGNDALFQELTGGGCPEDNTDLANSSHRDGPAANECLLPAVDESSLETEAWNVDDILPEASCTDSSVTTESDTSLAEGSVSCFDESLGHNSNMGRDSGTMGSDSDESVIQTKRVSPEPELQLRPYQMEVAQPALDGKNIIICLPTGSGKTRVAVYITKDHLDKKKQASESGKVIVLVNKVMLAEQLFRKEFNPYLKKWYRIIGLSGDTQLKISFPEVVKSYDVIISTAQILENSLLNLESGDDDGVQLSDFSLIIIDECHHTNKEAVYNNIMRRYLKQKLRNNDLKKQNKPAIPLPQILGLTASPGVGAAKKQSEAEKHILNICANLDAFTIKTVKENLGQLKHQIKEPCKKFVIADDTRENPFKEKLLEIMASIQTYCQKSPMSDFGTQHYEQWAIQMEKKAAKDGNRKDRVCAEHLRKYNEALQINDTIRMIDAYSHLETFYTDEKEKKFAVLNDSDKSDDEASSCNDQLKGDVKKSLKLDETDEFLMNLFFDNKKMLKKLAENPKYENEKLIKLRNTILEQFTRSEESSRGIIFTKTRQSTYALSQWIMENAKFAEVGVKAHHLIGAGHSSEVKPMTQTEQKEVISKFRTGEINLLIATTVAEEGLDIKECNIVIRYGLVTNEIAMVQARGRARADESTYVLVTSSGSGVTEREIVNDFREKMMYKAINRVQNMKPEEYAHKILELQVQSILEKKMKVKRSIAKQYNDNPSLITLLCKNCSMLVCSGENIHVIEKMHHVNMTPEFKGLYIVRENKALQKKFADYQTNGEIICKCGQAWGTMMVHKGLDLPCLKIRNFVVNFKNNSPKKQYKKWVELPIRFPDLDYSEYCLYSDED
B3: Antiviral innate immune response receptor RIG-I (Mus musculus), Q6Q899-1 (parent)
chain: MTAEQRQNLQAFRDYIKKILDPTYILSYMSSWLEDEEVQYIQAEKNNKGPMEAASLFLQYLLKLQSEGWFQAFLDALYHAGYCGLCEAIESWDFQKIEKLEEHRLLLRRLEPEFKATVDPNDILSELSECLINQECEEIRQIRDTKGRMAGAEKMAECLIRSDKENWPKVLQLALEKDNSKFSELWIVDKGFKRAESKADEDDGAEASSIQIFIQEEPECQNLSQNPGPPSEASSNNLHSPLKPRNYQLELALPAKKGKNTIICAPTGCGKTFVSLLICEHHLKKFPCGQKGKVVFFANQIPVYEQQATVFSRYFERLGYNIASISGATSDSVSVQHIIEDNDIIILTPQILVNNLNNGAIPSLSVFTLMIFDECHNTSKNHPYNQIMFRYLDHKLGESRDPLPQVVGLTASVGVGDAKTAEEAMQHICKLCAALDASVIATVRDNVAELEQVVYKPQKISRKVASRTSNTFKCIISQLMKETEKLAKDVSEELGKLFQIQNREFGTQKYEQWIVGVHKACSVFQMADKEEESRVCKALFLYTSHLRKYNDALIISEDAQMTDALNYLKAFFHDVREAAFDETERELTRRFEEKLEELEKVSRDPSNENPKLRDLYLVLQEEYHLKPETKTILFVKTRALVDALKKWIEENPALSFLKPGILTGRGRTNRATGMTLPAQKCVLEAFRASGDNNILIATSVADEGIDIAECNLVILYEYVGNVIKMIQTRGRGRARDSKCFLLTSSADVIEKEKANMIKEKIMNESILRLQTWDEMKFGKTVHRIQVNEKLLRDSQHKPQPVPDKENKKLLCGKCKNFACYTADIRVVETSHYTVLGDAFKERFVCKPHPKPKIYDNFEKKAKIFCAKQNCSHDWGIFVRYKTFEIPVIKIESFVVEDIVSGVQNRHSKWKDFHFERIQFDPAEMSV
B4: Interferon-induced helicase C domain-containing protein 1 (Mus musculus), Q8R5F7-1 (parent)
chain: B2 partner
B5: Non-structural protein V (measles virus (strai), P0C774 (parent)
chain: B1 partner
partner: B1 chain
B6: Antiviral innate immune response receptor RIG-I (Homo sapiens), O95786-1 (parent)
chain: MTTEQRRSLQAFQDYIRKTLDPTYILSYMAPWFREEEVQYIQAEKNNKGPMEAATLFLKFLLELQEEGWFRGFLDALDHAGYSGLYEAIESWDFKKIEKLEEYRLLLKRLQPEFKTRIIPTDIISDLSECLINQECEEILQICSTKGMMAGAEKLVECLLRSDKENWPKTLKLALEKERNKFSELWIVEKGIKDVETEDLEDKMETSDIQIFYQEDPECQNLSENSCPPSEVSDTNLYSPFKPRNYQLELALPAMKGKNTIICAPTGCGKTFVSLLICEHHLKKFPQGQKGKVVFFANQIPVYEQQKSVFSKYFERHGYRVTGISGATAENVPVEQIVENNDIIILTPQILVNNLKKGTIPSLSIFTLMIFDECHNTSKQHPYNMIMFNYLDQKLGGSSGPLPQVIGLTASVGVGDAKNTDEALDYICKLCASLDASVIATVKHNLEELEQVVYKPQKFFRKVESRISDKFKYIIAQLMRDTESLAKRICKDLENLSQIQNREFGTQKYEQWIVTVQKACMVFQMPDKDEESRICKALFLYTSHLRKYNDALIISEHARMKDALDYLKDFFSNVRAAGFDEIEQDLTQRFEEKLQELESVSRDPSNENPKLEDLCFILQEEYHLNPETITILFVKTRALVDALKNWIEGNPKLSFLKPGILTGRGKTNQNTGMTLPAQKCILDAFKASGDHNILIATSVADEGIDIAQCNLVILYEYVGNVIKMIQTRGRGRARGSKCFLLTSNAGVIEKEQINMYKEKMMNDSILRLQTWDEAVFREKILHIQTHEKFIRDSQEKPKPVPDKENKKLLCRKCKALACYTADVRVIEECHYTVLGDAFKECFVSRPHPKPKQFSSFEKRAKIFCARQNCSHDWGIHVKYKTFEIPVIKIESFVVEDIATGVQTLYSKWKDFHFEKIPFDPAEMSK
partner: B1 partner

Variants of: B1
Details: with v_measc P/V

**Q.** Which “effect of a mutation on the interaction” value does the source give for R806L here?
**A.** decreasing interaction strength

Variants of: B2
Details: with Ifih1, Q8R5F7-1

**Q.** Which “effect of a mutation on the interaction” value does the source give for E174A here?
**A.** decreasing interaction strength

Variants of: B3
Details: with v_piv5 P/V

**Q.** For L715R;E717G, which “effect of a mutation on the interaction” value is on record?
**A.** increasing interaction strength

Variants of: B4
Details: with v_piv5 P/V

**Q.** For R806L, which “effect of a mutation on the interaction” value is on record?
**A.** disrupting interaction strength

Variants of: B5
Details: with ifih1_human IFIH1, Q9BYX4

**Q.** How did the “effect of a mutation on the interaction” value turn out when E235A was run?
**A.** decreasing interaction strength

Variants of: B6
Details: with v_measc P/V

**Q.** L714R was tested. Which “effect of a mutation on the interaction” value did it give?
**A.** increasing interaction strength

**Q.** Which “effect of a mutation on the interaction” value does the source give for L714R;E716G here?
**A.** increasing interaction strength
